Each block holds one binder with its values, some of them ahead of it.
Tests used:
Assay in all cases: holdup assay
Set-up in all cases: key: below the threshold = too weak to quantify, mostly under pKd 3.1 to 4
LIN7C, Q9NUP9 = biological target: T1, LIN7C, Q9NUP9
T1 sequence (Q9NUP9 88-185, limits assumed, looked up): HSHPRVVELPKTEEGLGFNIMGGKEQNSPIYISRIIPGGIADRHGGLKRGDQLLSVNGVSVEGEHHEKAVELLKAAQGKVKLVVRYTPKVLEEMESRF

TJP1_3, Q07157 = biological target: TJP1_3, Q07157
MAGI1_1, Q96QZ7 = biological target: MAGI1_1, Q96QZ7
Sequence of MAGI1_1, Q96QZ7 (Q96QZ7 1-106): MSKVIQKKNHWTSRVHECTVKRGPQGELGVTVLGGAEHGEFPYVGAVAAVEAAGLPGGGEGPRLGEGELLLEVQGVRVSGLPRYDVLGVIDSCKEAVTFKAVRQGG

TIAM2, Q8IVF5 = biological target: T2, TIAM2, Q8IVF5
T2 sequence (Q8IVF5 885-986, limits assumed, looked up): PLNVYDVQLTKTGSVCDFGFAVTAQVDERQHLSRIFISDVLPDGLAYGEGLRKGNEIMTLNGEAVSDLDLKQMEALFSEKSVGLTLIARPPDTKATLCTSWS

DLG1_2, Q12959 = biological target: DLG1_2, Q12959
Sequence of DLG1_2, Q12959 (Q12959 314-412): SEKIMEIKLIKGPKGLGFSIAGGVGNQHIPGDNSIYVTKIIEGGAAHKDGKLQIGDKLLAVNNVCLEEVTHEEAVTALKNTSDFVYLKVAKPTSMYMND

LRRC7, Q96NW7 = biological target: T3, LRRC7, Q96NW7
T3 sequence (Q96NW7 1440-1537, limits assumed, looked up): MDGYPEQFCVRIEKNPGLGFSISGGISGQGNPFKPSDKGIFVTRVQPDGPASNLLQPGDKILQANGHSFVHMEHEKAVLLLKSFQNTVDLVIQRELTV

DLG3_1, Q92796 = biological target: T4, DLG3_1, Q92796
T4 sequence (Q92796 125-227, limits assumed, looked up): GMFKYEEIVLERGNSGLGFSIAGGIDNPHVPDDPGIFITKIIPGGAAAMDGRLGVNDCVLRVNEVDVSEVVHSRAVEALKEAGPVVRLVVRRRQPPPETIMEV

NHERF2_2, Q15599 = biological target: NHERF2_2, Q15599
Sequence of NHERF2_2, Q15599 (Q15599 142-238): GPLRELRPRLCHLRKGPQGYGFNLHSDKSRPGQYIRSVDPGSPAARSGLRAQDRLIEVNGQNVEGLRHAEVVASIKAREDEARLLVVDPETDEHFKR

MAST2, Q6P0Q8 = biological target: MAST2, Q6P0Q8
Sequence of MAST2, Q6P0Q8 (Q6P0Q8 1099-1202): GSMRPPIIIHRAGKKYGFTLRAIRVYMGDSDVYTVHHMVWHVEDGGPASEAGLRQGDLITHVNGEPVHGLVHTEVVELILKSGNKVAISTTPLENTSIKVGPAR

PTPN13_1, Q12923 = biological target: T5, PTPN13_1, Q12923
T5 sequence (Q12923 1088-1188, limits assumed, looked up): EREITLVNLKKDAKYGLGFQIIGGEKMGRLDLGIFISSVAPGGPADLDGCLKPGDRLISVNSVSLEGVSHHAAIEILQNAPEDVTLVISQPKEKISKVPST

NHERF3_4, Q5T2W1 = biological target: T6, NHERF3_4, Q5T2W1
T6 sequence (Q5T2W1 373-468, limits assumed, looked up): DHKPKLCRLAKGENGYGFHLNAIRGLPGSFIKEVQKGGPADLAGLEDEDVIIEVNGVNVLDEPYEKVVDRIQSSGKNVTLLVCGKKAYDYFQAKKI

DLG1_3, Q12959 = biological target: DLG1_3, Q12959
Sequence of DLG1_3, Q12959 (Q12959 457-571): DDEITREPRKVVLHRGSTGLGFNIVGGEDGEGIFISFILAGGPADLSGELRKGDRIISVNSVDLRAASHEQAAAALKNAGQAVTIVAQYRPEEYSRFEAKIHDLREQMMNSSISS

MPDZ_12, O75970 = biological target: T7, MPDZ_12, O75970
T7 sequence (O75970 1857-1958, limits assumed, looked up): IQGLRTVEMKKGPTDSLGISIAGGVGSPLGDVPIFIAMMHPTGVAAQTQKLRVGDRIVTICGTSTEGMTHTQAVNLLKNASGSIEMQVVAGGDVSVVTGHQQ

MAGI2_6, Q86UL8 = biological target: MAGI2_6, Q86UL8
Sequence of MAGI2_6, Q86UL8 (Q86UL8 1141-1229): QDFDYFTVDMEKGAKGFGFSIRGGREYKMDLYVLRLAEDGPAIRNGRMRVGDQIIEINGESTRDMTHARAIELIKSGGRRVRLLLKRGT

PDZRN3_1, Q9UPQ7 = biological target: T8, PDZRN3_1, Q9UPQ7
T8 sequence (Q9UPQ7 244-349, limits assumed, looked up): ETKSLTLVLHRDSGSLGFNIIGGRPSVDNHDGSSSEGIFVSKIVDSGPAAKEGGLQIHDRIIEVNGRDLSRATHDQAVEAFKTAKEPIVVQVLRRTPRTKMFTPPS

Inadl_9, Q8NI35 = biological target: Inadl_9, Q8NI35
Sequence of Inadl_9, Q8NI35 (Q8NI35 1530-1615): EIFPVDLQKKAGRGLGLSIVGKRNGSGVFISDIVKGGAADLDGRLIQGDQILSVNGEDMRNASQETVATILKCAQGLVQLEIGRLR

ARHGEF11, O15085 = biological target: T9, ARHGEF11, O15085
T9 sequence (O15085 42-136, limits assumed, looked up): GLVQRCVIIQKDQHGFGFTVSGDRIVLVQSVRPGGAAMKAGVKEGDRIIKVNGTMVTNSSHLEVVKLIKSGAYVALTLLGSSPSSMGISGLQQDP

AHNAK1, Q09666 = biological target: AHNAK1, Q09666
Sequence of AHNAK1, Q09666 (Q09666 4-100): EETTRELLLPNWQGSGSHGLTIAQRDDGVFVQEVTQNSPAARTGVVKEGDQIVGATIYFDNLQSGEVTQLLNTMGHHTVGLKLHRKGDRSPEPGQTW

DFNB31_1, Q9P202 = biological target: T10, DFNB31_1, Q9P202
T10 sequence (Q9P202 135-233, limits assumed, looked up): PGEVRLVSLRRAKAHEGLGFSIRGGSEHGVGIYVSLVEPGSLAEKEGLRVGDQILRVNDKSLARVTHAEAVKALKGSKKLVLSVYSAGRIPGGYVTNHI

DFNB31_3, Q9P202 = biological target: T11, DFNB31_3, Q9P202
T11 sequence (Q9P202 811-907, limits assumed, looked up): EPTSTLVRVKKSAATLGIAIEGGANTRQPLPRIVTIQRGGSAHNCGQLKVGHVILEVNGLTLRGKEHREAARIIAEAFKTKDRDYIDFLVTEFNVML

LNX1_3, Q8TBB1 = biological target: LNX1_3, Q8TBB1
Sequence of LNX1_3, Q8TBB1 (Q8TBB1 500-596): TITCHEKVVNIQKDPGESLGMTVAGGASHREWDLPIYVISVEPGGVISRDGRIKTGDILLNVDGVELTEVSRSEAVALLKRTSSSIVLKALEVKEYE

Inadl_1, Q8NI35 = biological target: Inadl_1, Q8NI35
Sequence of Inadl_1, Q8NI35 (Q8NI35 113-229): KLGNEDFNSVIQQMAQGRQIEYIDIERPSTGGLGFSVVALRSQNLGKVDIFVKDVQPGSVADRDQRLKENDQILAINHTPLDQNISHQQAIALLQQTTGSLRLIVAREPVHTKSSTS

NHERF4_4, Q86UT5 = biological target: NHERF4_4, Q86UT5
Sequence of NHERF4_4, Q86UT5 (Q86UT5 464-550): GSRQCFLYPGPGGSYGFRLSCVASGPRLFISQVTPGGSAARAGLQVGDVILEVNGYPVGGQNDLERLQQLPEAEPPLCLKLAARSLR

HTRA2, O43464 = biological target: HTRA2, O43464
Sequence of HTRA2, O43464 (O43464 355-458): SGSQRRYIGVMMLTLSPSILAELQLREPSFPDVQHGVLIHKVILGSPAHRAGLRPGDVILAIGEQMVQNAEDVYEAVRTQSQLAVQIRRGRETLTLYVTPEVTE

APBA2_1, Q99767 = biological target: T12, APBA2_1, Q99767
T12 sequence (Q99767 563-664, limits assumed, looked up): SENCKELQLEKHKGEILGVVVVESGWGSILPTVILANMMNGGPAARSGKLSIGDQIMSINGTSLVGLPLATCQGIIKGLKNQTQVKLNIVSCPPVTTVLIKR

NHERF4_2, Q86UT5 = biological target: NHERF4_2, Q86UT5
Sequence of NHERF4_2, Q86UT5 (Q86UT5 220-308): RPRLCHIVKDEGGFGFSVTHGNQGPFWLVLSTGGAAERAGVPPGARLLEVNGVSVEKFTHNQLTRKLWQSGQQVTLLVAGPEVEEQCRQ

[1] = plain residues with an end cap or a label only (N-terminal biotin on a linker: ado-ado)
[2] = modified: phospho on T at position -2 from the C-terminal residue

Sequence of TJP1_3, Q07157 (Q07157 416-512): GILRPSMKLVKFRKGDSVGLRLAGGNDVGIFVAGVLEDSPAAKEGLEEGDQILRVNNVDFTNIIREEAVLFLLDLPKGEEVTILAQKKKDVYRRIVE

- pKd (LIN7C, Q9NUP9; [1]): below the threshold
- pKd (TJP1_3, Q07157; [1]): below the threshold
- pKd (MAGI1_1, Q96QZ7; [1]): below the threshold
- pKd (TIAM2, Q8IVF5; [1]): below the threshold
- pKd (DLG1_2, Q12959; [1]): 4.29
- pKd (LRRC7, Q96NW7; [1]): below the threshold
- pKd (DLG3_1, Q92796; [1]): below the threshold
- pKd (NHERF2_2, Q15599; [1]): 4.29
- pKd (MAST2, Q6P0Q8; [1]): 5.51
- pKd (PTPN13_1, Q12923; [1]): below the threshold
- pKd (NHERF3_4, Q5T2W1; [1]): 4.26
- pKd (DLG1_3, Q12959; [1]): below the threshold
- pKd (MPDZ_12, O75970; [1]): below the threshold
- pKd (MAGI2_6, Q86UL8; [1]): 3.96
- pKd (PDZRN3_1, Q9UPQ7; [1]): 4.13
- pKd (Inadl_9, Q8NI35; [1]): below the threshold
- pKd (ARHGEF11, O15085; [1]): 4.18
- pKd (AHNAK1, Q09666; [1]): below the threshold
- pKd (DFNB31_1, Q9P202; [1]): below the threshold
- pKd (DFNB31_3, Q9P202; [1]): below the threshold
- pKd (LNX1_3, Q8TBB1; [1]): below the threshold
- pKd (Inadl_1, Q8NI35; [1]): below the threshold
- pKd (NHERF4_4, Q86UT5; [1]): 3.6
- pKd (HTRA2, O43464; [1]): below the threshold
- pKd (APBA2_1, Q99767; [1]): below the threshold
- pKd (NHERF4_2, Q86UT5; [1]): below the threshold
Binder: LEPAVRSSEL [SH2D3C, Q8N5H7]

- pKd (LIN7C, Q9NUP9; [2]): below the threshold
- pKd (TJP1_3, Q07157; [2]): below the threshold
- pKd (MAGI1_1, Q96QZ7; [2]): below the threshold
- pKd (TIAM2, Q8IVF5; [2]): below the threshold
- pKd (DLG1_2, Q12959; [2]): below the threshold
- pKd (LRRC7, Q96NW7; [2]): below the threshold
- pKd (DLG3_1, Q92796; [2]): below the threshold
- pKd (NHERF2_2, Q15599; [2]): below the threshold
- pKd (MAST2, Q6P0Q8; [2]): below the threshold
- pKd (PTPN13_1, Q12923; [2]): below the threshold
- pKd (NHERF3_4, Q5T2W1; [2]): below the threshold
- pKd (DLG1_3, Q12959; [2]): below the threshold
- pKd (MPDZ_12, O75970; [2]): below the threshold
- pKd (MAGI2_6, Q86UL8; [2]): below the threshold
- pKd (PDZRN3_1, Q9UPQ7; [2]): below the threshold
- pKd (Inadl_9, Q8NI35; [2]): below the threshold
- pKd (ARHGEF11, O15085; [2]): below the threshold
- pKd (AHNAK1, Q09666; [2]): below the threshold
- pKd (DFNB31_1, Q9P202; [2]): below the threshold
- pKd (DFNB31_3, Q9P202; [2]): below the threshold
- pKd (LNX1_3, Q8TBB1; [2]): below the threshold
- pKd (Inadl_1, Q8NI35; [2]): below the threshold
- pKd (NHERF4_4, Q86UT5; [2]): below the threshold
- pKd (HTRA2, O43464; [2]): below the threshold
- pKd (APBA2_1, Q99767; [2]): below the threshold
- pKd (NHERF4_2, Q86UT5; [2]): below the threshold
Binder: RRVRKLPSTTL [RPS6KA1_-2P, Q15418]

- pKd (LIN7C, Q9NUP9; [1]): below the threshold
- pKd (TJP1_3, Q07157; [1]): below the threshold
- pKd (MAGI1_1, Q96QZ7; [1]): below the threshold
- pKd (TIAM2, Q8IVF5; [1]): below the threshold
- pKd (DLG1_2, Q12959; [1]): below the threshold
- pKd (LRRC7, Q96NW7; [1]): below the threshold
- pKd (DLG3_1, Q92796; [1]): below the threshold
- pKd (NHERF2_2, Q15599; [1]): below the threshold
- pKd (MAST2, Q6P0Q8; [1]): 4.15
- pKd (PTPN13_1, Q12923; [1]): below the threshold
- pKd (NHERF3_4, Q5T2W1; [1]): below the threshold
- pKd (DLG1_3, Q12959; [1]): below the threshold
- pKd (MPDZ_12, O75970; [1]): 3.58
- pKd (MAGI2_6, Q86UL8; [1]): below the threshold
- pKd (PDZRN3_1, Q9UPQ7; [1]): 3.47
- pKd (Inadl_9, Q8NI35; [1]): 3.5
- pKd (ARHGEF11, O15085; [1]): 4.09
- pKd (AHNAK1, Q09666; [1]): below the threshold
- pKd (DFNB31_1, Q9P202; [1]): below the threshold
- pKd (DFNB31_3, Q9P202; [1]): below the threshold
- pKd (LNX1_3, Q8TBB1; [1]): 3.96
- pKd (Inadl_1, Q8NI35; [1]): 3.5
- pKd (NHERF4_4, Q86UT5; [1]): below the threshold
- pKd (HTRA2, O43464; [1]): 3.54
- pKd (APBA2_1, Q99767; [1]): 3.59
- pKd (NHERF4_2, Q86UT5; [1]): below the threshold
Binder: GQSVDLVFPV [AKIP1, Q9NQ31]
